Values of other authors, collected in PMC5075297.

Legend:
[1] = target: type I collagen (Homo sapiens) (UniProt P02452)
[2] = target: tropoelastin (Homo sapiens) (UniProt P15502)
[3] = target: cellular fibronectin (Homo sapiens) (UniProt P02751)
Chain of UniProt P02751 (P02751 32-2477): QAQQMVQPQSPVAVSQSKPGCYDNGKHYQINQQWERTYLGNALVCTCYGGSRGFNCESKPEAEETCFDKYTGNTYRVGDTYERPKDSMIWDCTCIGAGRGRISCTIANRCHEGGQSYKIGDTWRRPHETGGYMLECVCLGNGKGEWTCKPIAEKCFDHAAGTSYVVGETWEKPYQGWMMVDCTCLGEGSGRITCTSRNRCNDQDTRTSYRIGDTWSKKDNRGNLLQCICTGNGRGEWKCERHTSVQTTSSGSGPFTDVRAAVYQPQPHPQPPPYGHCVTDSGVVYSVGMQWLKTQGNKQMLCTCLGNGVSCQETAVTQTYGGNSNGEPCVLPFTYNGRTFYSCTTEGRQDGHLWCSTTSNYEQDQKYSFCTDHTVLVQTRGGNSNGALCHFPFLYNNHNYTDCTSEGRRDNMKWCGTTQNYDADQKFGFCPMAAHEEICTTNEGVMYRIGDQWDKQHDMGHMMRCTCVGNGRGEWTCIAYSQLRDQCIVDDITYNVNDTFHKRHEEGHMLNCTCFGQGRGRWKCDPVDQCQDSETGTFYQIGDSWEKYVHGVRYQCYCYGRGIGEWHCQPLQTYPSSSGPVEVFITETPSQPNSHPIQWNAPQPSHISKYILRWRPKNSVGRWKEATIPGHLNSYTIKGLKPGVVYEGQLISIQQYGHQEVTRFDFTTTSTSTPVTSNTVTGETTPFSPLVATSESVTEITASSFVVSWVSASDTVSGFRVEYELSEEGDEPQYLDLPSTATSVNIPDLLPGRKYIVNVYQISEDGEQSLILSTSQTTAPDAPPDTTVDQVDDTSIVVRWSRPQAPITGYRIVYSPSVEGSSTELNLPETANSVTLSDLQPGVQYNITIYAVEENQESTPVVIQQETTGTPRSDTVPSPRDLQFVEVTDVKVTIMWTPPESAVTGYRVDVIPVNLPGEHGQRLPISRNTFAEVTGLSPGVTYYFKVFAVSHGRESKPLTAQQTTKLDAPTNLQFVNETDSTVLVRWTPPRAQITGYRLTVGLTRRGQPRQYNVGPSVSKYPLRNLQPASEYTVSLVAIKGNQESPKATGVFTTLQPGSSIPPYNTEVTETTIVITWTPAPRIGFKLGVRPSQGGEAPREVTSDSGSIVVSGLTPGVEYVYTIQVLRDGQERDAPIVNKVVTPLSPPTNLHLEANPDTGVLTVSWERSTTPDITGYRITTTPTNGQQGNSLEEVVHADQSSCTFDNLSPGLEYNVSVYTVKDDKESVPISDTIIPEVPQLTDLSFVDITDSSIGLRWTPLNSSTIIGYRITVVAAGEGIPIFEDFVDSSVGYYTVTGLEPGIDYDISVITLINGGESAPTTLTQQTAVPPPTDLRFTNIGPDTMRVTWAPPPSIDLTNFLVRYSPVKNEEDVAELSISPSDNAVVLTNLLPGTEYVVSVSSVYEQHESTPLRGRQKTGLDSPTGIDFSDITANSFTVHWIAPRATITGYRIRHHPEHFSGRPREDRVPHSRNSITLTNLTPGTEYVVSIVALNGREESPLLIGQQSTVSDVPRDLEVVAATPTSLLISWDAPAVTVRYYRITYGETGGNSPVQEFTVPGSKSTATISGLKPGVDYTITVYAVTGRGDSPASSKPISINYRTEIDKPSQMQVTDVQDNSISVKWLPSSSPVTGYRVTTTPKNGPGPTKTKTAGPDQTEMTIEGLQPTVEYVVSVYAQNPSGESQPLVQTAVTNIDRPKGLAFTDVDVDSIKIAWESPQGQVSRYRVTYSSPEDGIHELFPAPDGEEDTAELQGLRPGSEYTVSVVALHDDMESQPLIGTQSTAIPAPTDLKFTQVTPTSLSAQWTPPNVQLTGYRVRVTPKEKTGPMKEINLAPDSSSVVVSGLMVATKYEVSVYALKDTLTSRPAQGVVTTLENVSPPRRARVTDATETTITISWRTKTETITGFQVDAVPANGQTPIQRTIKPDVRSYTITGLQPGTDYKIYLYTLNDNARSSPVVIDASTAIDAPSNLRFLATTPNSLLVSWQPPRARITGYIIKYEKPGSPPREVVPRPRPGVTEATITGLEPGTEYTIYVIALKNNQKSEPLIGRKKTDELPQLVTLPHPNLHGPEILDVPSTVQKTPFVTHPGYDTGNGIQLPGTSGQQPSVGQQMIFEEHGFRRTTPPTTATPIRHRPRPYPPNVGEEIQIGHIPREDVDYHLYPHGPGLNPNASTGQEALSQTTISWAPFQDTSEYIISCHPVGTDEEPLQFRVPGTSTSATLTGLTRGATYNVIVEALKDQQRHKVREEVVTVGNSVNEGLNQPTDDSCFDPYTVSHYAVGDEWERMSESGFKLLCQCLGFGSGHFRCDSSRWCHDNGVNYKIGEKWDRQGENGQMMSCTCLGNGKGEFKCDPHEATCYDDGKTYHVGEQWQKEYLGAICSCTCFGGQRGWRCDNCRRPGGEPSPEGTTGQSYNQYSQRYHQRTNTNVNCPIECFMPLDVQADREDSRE

Chain of UniProt P02452 (P02452 162-1218, chain 1 of 2): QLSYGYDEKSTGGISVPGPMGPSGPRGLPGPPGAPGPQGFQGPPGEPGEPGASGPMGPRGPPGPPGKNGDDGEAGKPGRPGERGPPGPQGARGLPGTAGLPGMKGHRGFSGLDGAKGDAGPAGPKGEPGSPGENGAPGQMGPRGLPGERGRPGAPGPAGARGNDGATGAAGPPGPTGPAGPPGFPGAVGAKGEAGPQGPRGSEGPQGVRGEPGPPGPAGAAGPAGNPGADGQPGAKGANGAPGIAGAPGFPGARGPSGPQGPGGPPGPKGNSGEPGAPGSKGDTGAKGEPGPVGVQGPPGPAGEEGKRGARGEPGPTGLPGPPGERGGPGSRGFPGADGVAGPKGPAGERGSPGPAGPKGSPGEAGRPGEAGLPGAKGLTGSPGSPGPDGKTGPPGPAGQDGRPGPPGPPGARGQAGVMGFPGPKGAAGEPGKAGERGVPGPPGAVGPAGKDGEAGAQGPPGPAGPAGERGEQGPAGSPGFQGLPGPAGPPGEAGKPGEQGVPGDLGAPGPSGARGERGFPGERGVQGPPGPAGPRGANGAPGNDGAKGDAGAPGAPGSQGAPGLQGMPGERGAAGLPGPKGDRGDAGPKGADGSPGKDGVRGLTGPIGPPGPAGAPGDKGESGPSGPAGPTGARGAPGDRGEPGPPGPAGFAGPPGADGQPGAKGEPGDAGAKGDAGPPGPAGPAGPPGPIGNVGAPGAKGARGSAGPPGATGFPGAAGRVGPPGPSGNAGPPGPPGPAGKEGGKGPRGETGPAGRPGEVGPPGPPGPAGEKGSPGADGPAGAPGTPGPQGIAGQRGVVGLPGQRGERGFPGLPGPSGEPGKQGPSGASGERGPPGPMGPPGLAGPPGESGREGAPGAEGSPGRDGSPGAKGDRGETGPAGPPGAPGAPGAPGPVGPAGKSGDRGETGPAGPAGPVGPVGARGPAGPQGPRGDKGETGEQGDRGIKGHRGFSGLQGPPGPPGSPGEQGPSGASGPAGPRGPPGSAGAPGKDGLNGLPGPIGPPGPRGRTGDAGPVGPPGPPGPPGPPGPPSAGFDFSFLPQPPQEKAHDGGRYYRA
Chain of UniProt P02452 (P08123 80-1119, chain 2 of 2, further chain): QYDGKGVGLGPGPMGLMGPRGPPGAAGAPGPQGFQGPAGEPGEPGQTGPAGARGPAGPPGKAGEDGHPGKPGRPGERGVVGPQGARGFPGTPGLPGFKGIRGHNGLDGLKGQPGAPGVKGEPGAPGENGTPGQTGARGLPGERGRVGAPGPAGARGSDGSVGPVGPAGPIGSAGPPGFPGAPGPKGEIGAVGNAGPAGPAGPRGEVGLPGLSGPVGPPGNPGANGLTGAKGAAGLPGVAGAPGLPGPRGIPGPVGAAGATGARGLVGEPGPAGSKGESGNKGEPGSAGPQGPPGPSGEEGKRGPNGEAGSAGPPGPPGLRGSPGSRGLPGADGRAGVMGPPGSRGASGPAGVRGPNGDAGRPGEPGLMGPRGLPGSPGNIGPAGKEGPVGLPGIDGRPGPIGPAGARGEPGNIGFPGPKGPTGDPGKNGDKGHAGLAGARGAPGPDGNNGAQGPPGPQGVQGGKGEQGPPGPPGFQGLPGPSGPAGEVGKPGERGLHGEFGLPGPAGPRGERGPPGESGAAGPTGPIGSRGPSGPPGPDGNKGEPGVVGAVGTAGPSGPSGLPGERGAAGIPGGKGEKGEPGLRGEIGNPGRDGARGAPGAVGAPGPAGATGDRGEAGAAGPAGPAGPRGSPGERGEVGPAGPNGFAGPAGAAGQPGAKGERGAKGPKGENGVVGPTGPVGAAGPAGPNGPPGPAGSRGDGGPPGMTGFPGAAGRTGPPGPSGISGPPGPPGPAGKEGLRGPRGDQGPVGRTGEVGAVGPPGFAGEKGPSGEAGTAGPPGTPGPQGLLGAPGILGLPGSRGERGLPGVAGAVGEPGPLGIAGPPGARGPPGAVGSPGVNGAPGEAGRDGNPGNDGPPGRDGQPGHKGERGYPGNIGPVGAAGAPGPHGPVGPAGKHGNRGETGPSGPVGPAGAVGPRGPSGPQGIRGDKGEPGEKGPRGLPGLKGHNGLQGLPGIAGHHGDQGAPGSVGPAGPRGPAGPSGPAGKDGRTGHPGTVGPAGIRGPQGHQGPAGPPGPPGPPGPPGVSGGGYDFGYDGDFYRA

LOX (from UniProt P28300)
Kd [1]: 5.2 nM
Kd [2]: 1.9 nM
Kd [3]: 2.5 nM
